Experiment [1] addresses T1, human NGF (R&D system) (human, UniProt P01138 122-241). Put plainly: cell-based or functional assay.
Experiment [2] concerns the target recombinantly produced human-NGF (human, UniProt P01138 122-241, limits assumed). In words: ELISA, human NGF coated, IgG titrated. As for the experimental part: NGF binding ELISA assay: In human NGF binding ELISA, Corning 3366 high binding 96 well plates were coated with recombinantly produced human-NGF at 1 μg per ml, 50 μl/well in 1×PBS, and incubated overnight at 4° C. The plates were washed and blocked with 250 μl of 1×PBS/1% BSA at least 30 minutes at room temperature. 50 μl of culture supernatants, after 1:1 diluted by the PBS/BSA diluent, or the purified antibodies diluted serially from a certain concentration with the diluent, were added per well, and incubated at 37° C. for 2 hours. After washing, a secondary antibody, goat anti-human IgG Fc AP (Southern biotech) was applied at a dilution of 1:3000 in PBS/BSA. The plates were incubated for 1 hour at RT and washed. After adding the PNPP substrate, the ODs at 405 nm were read.
NGF binding ELISA assay: NGF binding ELISA assay was performed as described in Example 1.
For orientation: ELISA stands for enzyme-linked immunosorbent assay.

In experiment [3] the target is T2, human NGF-Fc4 (IgG4-Fc) (human, UniProt P01138 122-241, limits assumed).
T2 construct: not shown: human IgG4 Fc
T2 sequence (P01138 122-241 limits assumed): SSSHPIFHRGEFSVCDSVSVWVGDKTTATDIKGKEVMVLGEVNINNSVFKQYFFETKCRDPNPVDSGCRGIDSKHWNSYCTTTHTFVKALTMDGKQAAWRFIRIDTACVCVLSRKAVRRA
Put plainly: competition ELISA: antibody pre-incubated with human NGF-Fc4, binding to coated TrkA-Fc. As to the method:
TrkA inhibition ELISA assay: The TrkA inhibition ELISA assay was designed to identify the anti-NGF antibodies that have the capability of blocking NGF binding to its receptor TrkA. In this assay, human TrkA-Fc (IgG1-Fc, Sinobiological) was coated at 1 μg/ml in the 96-well plates and incubated overnight at 4° C. Antibodies, from cell culture supernatants or after purified, in different dilutions, were pre-incubated with human NGF-Fc4 (IgG4-Fc) at a final concentration of 70 ng/mL for 2 hours in 37° C. A total of 50 μl of the reaction mixtures were then transferred into the TrkA-Fc coated 96-well plates and incubated in room temperature for 2 hours. After washing, a secondary mouse anti-human IgG4-AP (Southern biotech) was added at a dilution of 1:1000 After one hour in room temperature, the plates were washed, and after adding PNPP substrate, ODs at 405 nm were read.
TrkA inhibition ELISA assay: The optimized anti-NGF antibodies Ab4, Ab6, Ab10, Ab16, Ab36, Ab37, Ab44, Ab45, Ab46, Ab47, Ab48, Ab49, Ab52, Ab54, Ab55, Ab56, Ab57, Ab58, Ab59, Ab60, Ab61 and the reference antibody Tanezumab (Pfizer), a humanized antibody from mouse hybridoma were further analyzed for their abilities to block NGF binding to its receptor TrkA. TrkA inhibition assay was performed as described in Example 1.

Experiment [4] addresses T3, NT4 (UniProt P34130 81-210).
T3 construct: also called neurotrophin-4
T3 sequence (looked up): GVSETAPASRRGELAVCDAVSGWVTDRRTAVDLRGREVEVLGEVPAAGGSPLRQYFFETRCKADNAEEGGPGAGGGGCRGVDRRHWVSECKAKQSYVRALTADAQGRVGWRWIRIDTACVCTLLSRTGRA
Put plainly: ELISA.

Experiment [5] addresses T4, BDNF (UniProt P23560 129-247).
T4 construct: also called brain-derived neurotrophic factor
T4 sequence (looked up): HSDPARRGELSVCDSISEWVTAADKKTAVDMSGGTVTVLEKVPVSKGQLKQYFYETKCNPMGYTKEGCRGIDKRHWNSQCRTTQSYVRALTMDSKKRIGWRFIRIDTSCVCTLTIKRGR
In words: ELISA.

Experiment [6] has as its target T5, NT3 (UniProt P20783 139-257).
T5 construct: also called neurotrophin-3
T5 sequence (looked up): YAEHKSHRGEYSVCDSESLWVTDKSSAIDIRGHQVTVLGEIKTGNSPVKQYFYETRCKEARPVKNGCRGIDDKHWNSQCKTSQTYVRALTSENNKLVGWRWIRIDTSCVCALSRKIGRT
Put plainly: ELISA.

The target of experiment [7] is T1, human NGF (R&D system). In words: cell-based or functional assay. This is another data set of the same source.
For experiment [8], the target named is T1, human NGF (R&D system). In words: cell-based or functional assay. The source holds these as a separate data set.
The target of experiment [9] is T2, human NGF-Fc4 (IgG4-Fc). In words: competition ELISA: antibody pre-incubated with human NGF-Fc4, binding to coated p75-Fc. As to the method: p75 inhibition ELISA assay: The p75 inhibition assay was designed to identify anti-NGF antibodies that were capable of inhibiting NGF binding to p75. In this assay, human p75-Fc (IgG1-Fc, Sinobiological) was coated at 1 μg/mL in the 96-well plates and incubated overnight at 4° C. Anti-NGF antibodies, from supernatants directly or after purified, in different dilutions, were pre-incubated with human NGF-Fc4 (IgG4-Fc) at a final concentration of 350 ng/mL for 2 hours in 37° C. A total of 50 μl of the reaction mixtures were then transferred into the p75-Fc coated 96-well plates and incubated in room temperature for 2 hrs. After washing, a secondary mouse anti-human IgG4-AP (Southern biotech) was added at a dilution of 1:1000. After 1 hour in room temperature, the plates were washed, and after adding PNPP substrate, ODs at 405 nm were read.
p75 inhibition ELISA assay: The optimized anti-NGF antibodies Ab4, Ab61, and the reference antibody Tanezumab, a humanized antibody from mouse hybridoma were further analyzed for their abilities to block NGF binding to its receptor p75. P75 inhibition assay was performed as described in Example 1.

Experiment [10] concerns the target T1, human NGF (R&D system). In words: cell-based or functional assay. This is another data set of the same source.

The text below walks through data of patent US20230220057A1 (STAIDSON BEIJING BIOPHARMACEUTICALS, published 2023).

Broadly, the EC50 is the concentration giving half of the maximal effect. The term IC50 denotes the concentration that gives 50% inhibition.

Read-outs that look alike come from different tables or passages of the source.

Chain of recombinantly produced human-NGF (P01138 122-241 limits assumed): as the sequence (P01138 122-241 limits assumed) above
T1 sequence (P01138 122-241 limits assumed): as the sequence (P01138 122-241 limits assumed) above

B1: Ab6 (antibody, human IgG1, V domains shown)
VH: EVQLVQSGAEVKKPGATVKISCKVSGYTFITYWISWVQQAPGKGLEWMGAIDPSDSDARYSPSFQGRVTITADTSTDTAYMELSSLRSEDTAVYYCAKSDPGYSGYSLLYGFDSWGQGTLVTVSS
VL: DVVMTQSPLSLPVTLGQPASISCRSSQSLVQRNGNTYLSWFQQRPGQPPRLLIYQVSNRYSGVPDRFSGSGSGTDFTLKISRVEAEDVGVYYCGQGAHLPLTFGQGTKVEIK
Regarding B1, the “TF1 Cell Proliferation Inhibition Assay IC50” value in experiment [1] was found to be 170 pM. Moreover, the EC50 in experiment [2] was determined as 0.021 ng/mL. Besides, the IC50 in [3] stood at 0.0769 µg/mL. In addition, the binding result in [4], in experiment [5] and in experiment [6] was “no binding (tested: 100 µg/mL)” in each case.

B2: Ab44 (antibody, human IgG1, V domains shown)
VH: EVQLVQSGAEVKKPGESLKISCKGSGYSFITYWISWVRQMPGKGLEWMGAIDPSDSDARYSPSFQGQVTISADKSISTAYLQWSSLKASDTAMYYCAKSDPGYSGYSLLYGFDSWGQGTLVTVSS
VL: DVVMTQSPLSLPVTLGQPASISCRSSQSLVQRNGNTYLSWYQQRPGQSPRLLIYQVSNRYSGVPDRFSGSGSGTDFTLKISRVEAEDVGVYYCGQGAHLPLTFGQGTKVEIK
In the case of B2, the EC50 in experiment [2] is 0.0129 ng/mL. Also, the IC50 in experiment [3] turned out to be 0.13 µg/mL. Further, the binding result in [4], in [5] and in experiment [6] was “no binding (tested: 100 µg/mL)” throughout.

B3: Ab10 (antibody, human IgG1, V domains shown)
VH: EVQLVQSGAEVKKPGATVKISCKVSGYTFITYWISWVQQAPGKGLEWMGAIDPSDSDARYSPSFQGRVTITADTSTDTAYMELSSLRSEDTAVYYCAKSDPGYSGYSLLYGFDSWGQGTLVTVSS
VL: DIVMTQSPLSLPVTLGQPASISCRSSQSLVQRNGNTYLSWFQQRPGQPPRLLIYQVSNRYSGVPDRFSGSGSGTDFTLKISRVEAEDVGVYYCGQGAHLPLTFGQGTKVEIK
Consider B3, for which the “TF1 Cell Proliferation Inhibition Assay IC50” value in experiment [1] amounted to 254 pM. Besides, the concentration giving a half-maximal response (EC50) in experiment [2] was found to be 0.0134 ng/mL. Also, the IC50 in experiment [3] was 0.0804 µg/mL.

B4: Ab55 (antibody, human IgG1, V domains shown)
VH: EVQLVQSGAEVKKPGESLKISCKISGYSFITYWISWVRQMPGKGLEWMGAIDPSDSDARYSPSFQGQVTISADKSISTAYLQWSSLKASDTAMYYCAKSDPGYSGYSLLYGFDSWGQGTLVTVSS
VL: DVVMTQSPLSLPVTLGQPASISCRSSQSLVQRNGNTYLSWYQQRPGQPPRLLIYQVSNRYSGVPDRFSGSGSGTDFTLKISRVEAEDVGVYYCGQGAHLPLTFGQGTKVEIK
Regarding B4, the “TF1 Cell Proliferation Inhibition Assay IC50” value in experiment [1] was found to be 184 pM. Also, the EC50 in experiment [2] is 0.0185 ng/mL. In addition, the IC50 in experiment [3] amounted to 0.0757 µg/mL.

B5: Ab61 (antibody, human IgG1, V domains shown)
VH: EVQLVQSGAEVKKPGATVKISCKVSGYTFITYWISWVQQAPGKGLEWMGAIDPSDSDARYSPSFQGRVTITADTSTDTAYMELSSLRSEDTAVYYCAKSDPGYSGYSLLYGFDSWGQGTLVTVSS
VL: DVVMTQSPLSLPVTLGQPASISCRSSQSLVQRNANTYLSWYQQRPGQSPRLLIYQVSNRYSGVPDRFSGSGSGTDFTLKISRVEAEDVGVYYCGQGAHLPLTFGQGTKVEIK
For the molecule B5, in experiment [1], the “TF1 Cell Proliferation Inhibition Assay IC50” value worked out at 346 pM. Moreover, the “ERK1/2 Signaling Pathway Inhibition Assay IC50 (PC12 cells)” value in [7] is 174 pM. Also, the EC50 in experiment [2] stood at 0.014 ng/mL. Besides, the concentration for half-maximal inhibition (IC50) came out at 0.07 µg/mL in [3] and 0.577 µg/mL in experiment [9]. Besides, the “Chicken DRG Neurite Outgrowth Inhibition Assay IC50” value in experiment [8] came out at 78.6 pM.

B6: Ab54 (antibody, human IgG1, V domains shown)
VH: EVQLVQSGAEVKKPGESLKISCKISGYSFITYWISWVRQMPGKGLEWMGAIDPSDSDARYSPSFQGQVTISADKSISTAYLQWSSLKASDTAMYYCAKSDPGYSGYSLLYGFDSWGQGTLVTVSS
VL: DVVMTQSPLSLPVTLGQPASISCRSSQSLVQRNGNTYLSWYQQRPGQSPRLLIYQVSNRYSGVPDRFSGSGSGTDFTLKISRVEAEDVGVYYCGQGAHLPLTFGQGTKVEIK
On to B6, for which, in [1], the “TF1 Cell Proliferation Inhibition Assay IC50” value was 184 pM. Besides, the EC50 in experiment [2] amounted to 0.0257 ng/mL. For the same molecule, in experiment [3], the IC50 was 0.0702 µg/mL. For the same molecule, the binding result in [4], in experiment [5] and in experiment [6] was “no binding (tested: 100 µg/mL)” in each case.

B7: Ab36 (antibody, human IgG1, V domains shown)
VH: EVQLVQSGAEVKKPGATVKISCKVSGYTFITYWISWVQQAPGKGLEWMGAIDPSDSDARYSPSFQGRVTITADKSTDTAYMELSSLRSEDTAVYYCAKSDPGYSGYSLLYGFDSWGQGTLVTVSS
VL: DVVMTQSPLSLPVTLGQPASISCRSSQSLVQRNGNTYLSWFQQRPGQPPRLLIYQVSNRYSGVPDRFSGSGSGTDFTLKISRVEAEDVGVYYCGQGAHLPLTFGQGTKVEIK
With B7, in [1], the “TF1 Cell Proliferation Inhibition Assay IC50” value turned out to be 234 pM. Besides, the concentration for a half-maximal effect (EC50) in experiment [2] amounted to 0.0218 ng/mL. The same molecule registered a half-inhibitory concentration (IC50) in experiment [3] of 0.0899 µg/mL. Besides, the binding result in experiment [4], in experiment [5] and in [6] was “no binding (tested: 100 µg/mL)” throughout.

B8: Tanezumab (antibody, part only; not given: constant regions, V domains shown, not shown: another chain or arm of the molecule)
VH: QVQLQESGPGLVKPSETLSLTCTVSGFSLIGYDLNWIRQPPGKGLEWIGIIWGDGTTDYNSAVKSRVTISKDTSKNQFSLKLSSVTAADTAVYYCARGGYWYATSYYFDYWGQGTLVTVSS
VL: DIQMTQSPSSLSASVGDRVTITCRASQSISNNLNWYQQKPGKAPKLLIYYTSRFHSGVPSRFSGSGSGTDFTFTISSLQPEDIATYYCQQEHTLPYTFGQGTKLEIK
As for B8, the concentration giving a half-maximal response (EC50) in experiment [2] was 0.00937 ng/mL. The values for the IC50 in [3] and in experiment [9] were 0.0602 µg/mL and 0.525 µg/mL, respectively. The molecule also returned a Chicken DRG Neurite Outgrowth Inhibition Assay IC50 in experiment [10] of 72.7 pM. The same molecule showed a TF1 Cell Proliferation Inhibition Assay IC50 in experiment [10] of 170 pM.
